We go through one substance from patent US20260150817A1.

pIC50: −log10 of the molar value.

The target in this experiment is Spike protein of the COVID-19 Spike-ACE2 Binding Assay Kit (Raybiotech) (SARS-CoV-2) (UniProt P0DTC2).

Take “human SAT Nb-Fc control VH-Ab-8 (HAb8-S) (Fc fusion)”: the pIC50 is 10.10.

The term pIC50 denotes the IC50 on a negative log10 scale, so that one unit is a factor of ten.
